Measured values: US20220275053A1, “MODIFIED […] PEPTIDE LIGANDS” (BicycleTx Limited, priority 2019, published 2022)
*1 amine or outer side, *2 acyl side, *3 side chain or, on linkers, in order; H or OH if unused. Where a SMILES comes first, the peptide text is derived from it. Bridges are numbered along the chain shown (N, C = ends). Roman numbers before positions name the chains, in order. [ ]: non-standard residue; d: D form. X1 = N=c1ccc2c(-c3ccc(C(=O)NCCOCCOCCN(CCOCCOCCOCCn4cc(CCC(=O)[*:1])nn4)CCOCCOCCOCCn4cc(CCC(=O)[*:2])nn4)cc3C(=O)O)c3ccc(N)c(S(=O)(=O)O)c3oc-2c1S(=O)(=O)O; TATA = O=C(CC[*:1])N1CN(C(=O)CC[*:2])CN(C(=O)CC[*:3])C1; tBuAla = CC(C)(C)C[C@H](N)C(=O)O; Nle = CCCC[C@H](N)C(=O)O

Assays:
CD137 [1] = target: T1, CD137 (Macaca fascicularis, UniProt A9YYE7); test: Fluorescent multimer cyno immune cell direct binding assay (FACS); set-up: species or system cynomolgus monkey; details: FIG. 4
T1 construct: Cryopreserved PBMCs were purchased from Worldwide Primates and thawed according to standard protocol
Description: Cryopreserved PBMCs were purchased from Worldwide Primates and thawed according to standard protocol. CD8+ T cells were then isolated from the PBMCs with a MACS CD8+ T cell isolation kit (negative bead selection) according to the manufacturer's protocol (Miltenyi Biotec). Purified CD8+ T cells were then activated for 48 hours 96 well plates coated with CD3 antibody (1 μg/ml) in R10 media (RPMI1640+10% FBS+1× Pen-Strep). Cells were incubated in R10 media in the presence of fluorescent CD137 multimers or a fluorescent EphA2 bicyclic peptide monomer (BCY0215), which was used as a negative control, at different concentrations for 1 hour at 37° C. After 1 hour, cells were transferred to a V-bottom plate and washed and stained for FACs analysis. Briefly, cells were stained in 1× Live/Dead BV510 for 15 minutes, washed, and then surface stained with the following antibodies: CD8-BV785 and CD137-PECy5 (diluted 1:100 in 2% FBS/PBS). Cells were then washed and fixed in 2% paraformaldehyde (PFA). Cells were run on the BD FACSCelesta and FCS files were analyzed in FlowJo. Cells were gated on Single/Live/Lymphocytes/CD8+/CD137+ or CD137−. The FITC geometric mean of the CD137+ population is shown.

CD137 [2] = target: T2, CD137 (Homo sapiens, UniProt Q07011); test: Fluorescent multimers human immune cell direct binding assay (FACS); details: FIG. 3A
T2 construct: Human peripheral blood mononuclear cells (PBMCs) were isolated from buffy coats from two donors; endogenous in cells
Description: Human peripheral blood mononuclear cells (PBMCs) were isolated from buffy coats from two donors according to standard protocols. PBMCs were used for the next step or alternatively CD8+ T cells were then isolated from the PBMCs with a MACS CD8+ T cell isolation kit (negative bead selection) according to the manufacturer's protocol (Miltenyi Biotec). PBMCs or purified CD8+ T cells were then activated for 24 hours in tissue culture flasks coated with CD3 antibody in R10 media (RPMI1640+10% FBS+1× Pen-Strep). Alternatively, cells were incubated in R10 media containing 1 μg/ml of soluble CD3 antibody (OKT3) for 24 hours. Cells were then transferred to CD3-coated 96-well flat bottom plates and incubated in R10 media in the presence of fluorescent CD137 multimers or a fluorescent EphA2 bicyclic peptide monomer (BCY0215), which was used as a negative control, at different concentrations for 1 hour at 37° C. After 1 hour, cells were transferred to a V-bottom plate and washed and stained for FACs analysis. Briefly, cells were stained in 1× Live/Dead BV510 for 15 minutes, washed, and then surface stained with the following antibodies: CD8-BV785 (or CD3-BV605) and CD137-PECy5 (diluted 1:100). Cells were then washed and fixed in 2% paraformaldehyde (PFA). Cells were run on the BD FACSCelesta and FCS files were analyzed in FlowJo. […]

CD137 [3] = target: T2, CD137; test: BCY15416 direct binding to CD4 and CD8 positive T-cells (CD3 stimulated PBMCs, flow cytometry)
Description: To evaluate the affinity of a CD137 dimeric Bicycle® peptide conjugated to Alexa Fluor® 488, herein referred to as BCY15416, a binding assay utilizing CD3 stimulated primary peripheral blood mononuclear cells (PBMCs) was implemented.
On the day of the experiment, medium was prepared by supplementing RPMI-1640 (Gibco™ 11875-093; with L-glutamine) with 10% heat-inactivated fetal bovine serum (FBS; Corning® 35-011-CV), 10 mM HEPES (Gibco™ 15-630-080), and 1% Penicillin Streptomycin (Corning™ 30-002-CI), herein referred to as working medium. Previously isolated human peripheral blood mononuclear cells (PBMCs), from whole blood, were quick thawed in a water bath and washed once at 500 rpm for 5 minutes in 10 mL of prewarmed working medium. PBMC pellet was then resuspended in working medium at a concentration of 3×10^6 cells/mL. Subsequently, 100 μL of cell suspension was plated in a flat-bottom tissue-culture coated 96-well plate (Greiner CellStar® 655180). Anti-human CD3 (200 ng/mL; BioLegend® 317347; clone OKT3) was added to the cell plate (100 μL/well) at a final concentration of 100 ng/mL Whereas, for unstimulated controls 100 μL of working medium was added. Cells were incubated overnight (12-24 hours) at 37° C., 5% CO2.
Plates were then incubated for 1 hour at 37° C., 5% CO2. Post-incubation, plate was centrifuged at 500 rpm for 5 minutes and supernatant discarded. Samples were then washed once in 200 μL of 1× phosphate buffer saline (PBS; Gibco™ 10-010-023) at 500 rpm for 5 minutes. Cells were resuspended in 200 μL of PBS and transferred to a 96-well V-bottom polypropylene plate (Greiner Bio-One 651201). Samples were then centrifuged at 500 rpm for 5 minutes and supernatant was discarded.
Preparation of samples for flow cytometry: Zombie Violet™ Fixable Viability Dye (BioLegend® 423113) was prepared as a 1:1000 dilution in PBS and 100 μL of viability dye was added to each well and incubated in the dark at 4° C. for 30 minutes. Subsequently, wells were washed with 100 μL of PBS for 5 minutes at 500 rpm and supernatant was discarded. Next, human TruStain FcX™ block (BioLegend® 422302) was prepared by diluting 1.5 μL of FcX in 25 μL of stain buffer (1×PBS supplemented with 2% FBS). Fc block solution (25 μL/well) was incubated at room temperature (RT) for 10 minutes in the dark. […] Cells resuspended in 200 μL of stain buffer were kept at 4° C. and in the dark until read by BD FACSCelesta™ flow cytometer and FCS files were analyzed in FlowJo™.
Cells were gated on lymphocytes→singlets→live→CD4+ or CD8+→CD137+/− and the geometric mean of Alexa Fluor® 488 (conjugated to BCY15416) was calculated from the CD137+ and CD137− populations shown below. […] Calculated binding affinity (kd,app) for each donor appear in Table 5.

human CD137 = target: T3, human CD137 (human, UniProt Q07011 24-255); test: flow cytometry, direct binding to activated human CD8+/CD137+ T cells
T3 construct: whole, on cells; Endogenous receptor on CD3-stimulated human PBMCs or purified CD8+ T cells; also called CD137 receptor; 4-1BB
T3 sequence (Q07011 24-255): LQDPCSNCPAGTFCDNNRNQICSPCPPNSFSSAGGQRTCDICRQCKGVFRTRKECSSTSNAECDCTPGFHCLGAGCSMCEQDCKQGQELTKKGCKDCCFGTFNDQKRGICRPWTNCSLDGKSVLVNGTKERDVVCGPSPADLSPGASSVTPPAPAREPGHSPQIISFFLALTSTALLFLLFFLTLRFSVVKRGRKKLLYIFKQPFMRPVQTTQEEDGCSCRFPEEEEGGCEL

T2 sequence (Q07011 24-255): as above
T1 sequence (A9YYE7 1-254): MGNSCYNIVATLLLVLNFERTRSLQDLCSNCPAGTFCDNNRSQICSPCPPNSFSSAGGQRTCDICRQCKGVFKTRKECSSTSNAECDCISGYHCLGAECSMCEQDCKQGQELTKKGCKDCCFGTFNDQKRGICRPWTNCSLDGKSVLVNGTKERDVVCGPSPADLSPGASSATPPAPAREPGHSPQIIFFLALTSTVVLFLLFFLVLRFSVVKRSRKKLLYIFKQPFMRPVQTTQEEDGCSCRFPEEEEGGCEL

“BCY7340: Fluorescent CD137 dimer: formula (II), CHM C, 2 x BCY7077, SA n=23, fluorescein modifier (CIEEGQYCFADPYMCAX; not fully specified; non-natural residues; cyclised or stapled)” was tested, and the “binding potency relative to fluorescent trimer (BCY9932) and tetramer (BCY9931)” value (CD137 [1]; cyno CD137+ T cells) was “less potent binding”, the “binding to cyno CD137+ T cells (FITC geometric mean)” value (CD137 [1]; purified CD8+/CD137+ T cells from cynomolgus monkey PBMCs, 1 hour at 37° C.) was “bind to cyno CD137+ T cells in a dose responsive manner” and the “binding potency relative to fluorescent trimer (BCY9932) and tetramer (BCY9931)” value (CD137 [2]; human CD137+ T cells) was “slightly less potent binding”. For the same molecule, the “binding to human CD137+ T cells (FITC geometric mean)” value (CD137 [2]; purified CD8+/CD137+ T cells from human PBMCs, 1 hour at 37° C.) was “bind to human CD137+ T cells in a dose responsive manner”.

For `CCCC[C@@H]1NC(=O)[C@H](Cc2ccc(O)cc2)NC(=O)[C@@H]2CCCN2C(=O)[C@H](CC(=O)O)NC(=O)[C@H](C)NC(=O)[C@H](Cc2ccccc2)NC(=O)[C@@H]2CSCCC(=O)N3CN(CN(C3)C(=O)CCSC[C@@H](C(=O)N[C@@H](C)C(N)=O)NC1=O)C(=O)CCSC[C@H](NC(C)=O)C(=O)N[C@@H](CC(C)(C)C)C(=O)N1CCC[C@H]1C(=O)N[C@@H](CCC(=O)O)C(=O)N[C@H](CCCCNC(=O)CCc1cn(CCOCCOCCOCCN(CCOCCOCCNC(=O)c3ccc(-c4c5ccc(=N)c(S(=O)(=O)O)c-5oc5c(S(=O)(=O)O)c(N)ccc45)c(C(=O)O)c3)CCOCCOCCOCCn3cc(CCC(=O)NCCCC[C@H]4NC(=O)[C@H](CCC(=O)O)NC(=O)[C@@H]5CCCN5C(=O)[C@H](CC(C)(C)C)NC(=O)[C@@H](NC(C)=O)CSCCC(=O)N5CN6CN(C5)C(=O)CCSC[C@H](NC(=O)[C@H](Cc5ccc(O)cc5)NC(=O)[C@@H]5CCCN5C4=O)C(=O)N[C@@H](Cc4ccccc4)C(=O)N[C@@H](C)C(=O)N[C@@H](CC(=O)O)C(=O)N4CCC[C@H]4C(=O)N[C@@H](Cc4ccc(O)cc4)C(=O)N[C@@H](CCCC)C(=O)N[C@H](C(=O)N[C@@H](C)C(N)=O)CSCCC6=O)nn3)nn1)C(=O)N1CCC[C@H]1C(=O)N[C@@H](Cc1ccc(O)cc1)C(=O)N2` [BCY15416] (I: Ac-C[tBuAla]PE[dK]PYCFADPY[Nle]CA-NH2 / II: Ac-C[tBuAla]PE[dK]PYCFADPY[Nle]CA-NH2; linker I:1-I:8-I:15, II:1-II:8-II:15 via TATA; linker I:5-II:5 via X1; C-terminus assumed), the “binding to CD137+ T-cells (Alexa Fluor 488 geometric mean)” value (CD137 [3]; CD137+CD4+ and CD137+CD8+ T-cells, three human PBMC donors, FIG. 6) was “binding exclusively to the CD137+CD4+ T-cells and CD137+CD8+ T-cells, in a dose-dependent manner”, the “binding to CD137− T cells” value (CD137 [3]; CD137− CD4 and CD8 T cells, FIGS. 6A and 6B) was “does not bind” and the “binding affinity in CD137− populations” value (CD137 [3]; CD137− populations for both CD4+ and CD8+) was “unable to be calculated”. For the same molecule, the “binding affinity (range in words)” value (CD137 [3]; both CD137+CD4+ and CD137+CD8+ populations) was “sub-nanomolar range”.

B1: BCY9932 (peptide)
peptide: ACIEEGQYCFADPYXCX
modifications: N-terminal acetyl; Nle (norleucine) at position 12 of the core; C-terminal Dap(PYA) amide (CONH2); the three Cys cyclised on the TATA scaffold; joined through PYA to spacer SA (n = 10) on central hinge moiety B; Alexa Fluor 488 on the hinge without spacer (formula (II))
notes: also called fluorescent CD137 multimer; fluorescent trimer
B1: binds (human CD137).
